Data reported in patent US20240117018A1.

Columns and labels:
Experiment in all cases: cell-based or functional assay
[1] = biological target: HIV-1 Env of pseudovirus X2088_c9 (HIV-1)
[2] = biological target: HIV-1 Env of pseudovirus BJOX028000.10.3 (HIV-1)
[3] = biological target: HIV-1 Env of pseudovirus Ce1172_H1 (HIV-1)
[4] = biological target: HIV-1 Env of pseudovirus Du172.17 (HIV-1)
[5] = biological target: HIV-1 Env of pseudovirus R1166.c01 (HIV-1)
[6] = biological target: HIV-1 Env of pseudovirus Q259.d2.17 (HIV-1)
[7] = biological target: MuLV envelope (negative control pseudovirus) (MuLV)
[8] = biological target: HIV-1 Env of pseudovirus AC10.0.29 (HIV-1)
[9] = biological target: HIV-1 Env of pseudovirus CNE20 (HIV-1)
[10] = biological target: HIV-1 Env of pseudovirus 191955_A11 (HIV-1)
[11] = biological target: HIV-1 Env of pseudovirus 3103.v3.c10 (HIV-1)
[12] = biological target: HIV-1 Env of pseudovirus CAP210.2.00.E8 (HIV-1)
[13] = biological target: HIV-1 Env of pseudovirus Du422.1 (HIV-1)
[14] = biological target: HIV-1 Env of pseudovirus 3016.v5.c45 (HIV-1)
[15] = biological target: HIV-1 Env of pseudovirus PVO.4 (HIV-1)
[16] = biological target: HIV-1 Env of pseudovirus 62357_14_D3_4589 (HIV-1)
[17] = biological target: HIV-1 Env of pseudovirus X1254_c3 (HIV-1)
[18] = biological target: HIV-1 Env of pseudovirus T250-4 (HIV-1)
[19] = biological target: HIV-1 Env of pseudovirus 6952.v1.c20 (HIV-1)
[20] = biological target: HIV-1 Env of pseudovirus 620345.c01 (HIV-1)
[21] = biological target: HIV-1 Env of pseudovirus Ce1086_B2 (HIV-1)

N49P7YTE (antibody)
IC50 (Titer in TZM.bl cells) [1]: 0.329 µg/mL
IC80 (Titer in TZM.bl cells) [1]: 1.06 µg/mL
MPI [1]: 100
IC50 (Titer in TZM.bl cells) [2]: 0.018 µg/mL
IC80 (Titer in TZM.bl cells) [2]: 0.155 µg/mL
MPI [2]: 100
IC50 (Titer in TZM.bl cells) [3]: > 50 µg/mL
IC80 (Titer in TZM.bl cells) [3]: > 50 µg/mL
MPI [3]: 12
IC50 (Titer in TZM.bl cells) [4]: 0.283 µg/mL
IC80 (Titer in TZM.bl cells) [4]: 0.953 µg/mL
MPI [4]: 100
IC50 (Titer in TZM.bl cells) [5]: 0.232 µg/mL
IC80 (Titer in TZM.bl cells) [5]: 0.782 µg/mL
MPI [5]: 100
IC50 (Titer in TZM.bl cells) [6]: 5.34 µg/mL
IC80 (Titer in TZM.bl cells) [6]: 44.1 µg/mL
MPI [6]: 82
IC50 (Titer in TZM.bl cells) [7]: > 50 µg/mL
IC80 (Titer in TZM.bl cells) [7]: > 50 µg/mL
MPI [7]: 4
IC50 (Titer in TZM.bl cells) [8]: > 50 µg/mL
IC80 (Titer in TZM.bl cells) [8]: > 50 µg/mL
MPI [8]: 28
IC50 (Titer in TZM.bl cells) [9]: 0.11 µg/mL
IC80 (Titer in TZM.bl cells) [9]: 0.317 µg/mL
MPI [9]: 99
IC50 (Titer in TZM.bl cells) [10]: 39 µg/mL
IC80 (Titer in TZM.bl cells) [10]: > 50 µg/mL
MPI [10]: 56
IC50 (Titer in TZM.bl cells) [11]: 0.322 µg/mL
IC80 (Titer in TZM.bl cells) [11]: 0.583 µg/mL
MPI [11]: 100
IC50 (Titer in TZM.bl cells) [12]: 3.11 µg/mL
IC80 (Titer in TZM.bl cells) [12]: 13.9 µg/mL
MPI [12]: 99
IC50 (Titer in TZM.bl cells) [13]: 13.2 µg/mL
IC80 (Titer in TZM.bl cells) [13]: > 50 µg/mL
MPI [13]: 76
IC50 (Titer in TZM.bl cells) [14]: 1.15 µg/mL
IC80 (Titer in TZM.bl cells) [14]: 9.65 µg/mL
MPI [14]: 89
IC50 (Titer in TZM.bl cells) [15]: 0.088 µg/mL
IC80 (Titer in TZM.bl cells) [15]: 0.394 µg/mL
MPI [15]: 100
IC50 (Titer in TZM.bl cells) [16]: 0.039 µg/mL
IC80 (Titer in TZM.bl cells) [16]: 0.173 µg/mL
MPI [16]: 100
IC50 (Titer in TZM.bl cells) [17]: 26.2 µg/mL
IC80 (Titer in TZM.bl cells) [17]: > 50 µg/mL
MPI [17]: 59
IC50 (Titer in TZM.bl cells) [18]: > 50 µg/mL
IC80 (Titer in TZM.bl cells) [18]: > 50 µg/mL
MPI [18]: 43
IC50 (Titer in TZM.bl cells) [19]: > 50 µg/mL
IC80 (Titer in TZM.bl cells) [19]: > 50 µg/mL
MPI [19]: 13
IC50 (Titer in TZM.bl cells) [20]: > 50 µg/mL
IC80 (Titer in TZM.bl cells) [20]: > 50 µg/mL
MPI [20]: 0
IC50 (Titer in TZM.bl cells) [21]: 0.113 µg/mL
IC80 (Titer in TZM.bl cells) [21]: 0.53 µg/mL
MPI [21]: 99

N49P7-54TY (antibody)
IC50 (Titer in TZM.bl cells) [1]: 0.172 µg/mL
IC80 (Titer in TZM.bl cells) [1]: 0.572 µg/mL
MPI [1]: 100
IC50 (Titer in TZM.bl cells) [2]: 0.009 µg/mL
IC80 (Titer in TZM.bl cells) [2]: 0.044 µg/mL
MPI [2]: 100
IC50 (Titer in TZM.bl cells) [3]: > 25 µg/mL
IC80 (Titer in TZM.bl cells) [3]: > 25 µg/mL
MPI [3]: 23
IC50 (Titer in TZM.bl cells) [4]: 0.124 µg/mL
IC80 (Titer in TZM.bl cells) [4]: 0.529 µg/mL
MPI [4]: 100
IC50 (Titer in TZM.bl cells) [5]: 0.131 µg/mL
IC80 (Titer in TZM.bl cells) [5]: 0.47 µg/mL
MPI [5]: 100
IC50 (Titer in TZM.bl cells) [6]: 0.132 µg/mL
IC80 (Titer in TZM.bl cells) [6]: 1.13 µg/mL
MPI [6]: 95
IC50 (Titer in TZM.bl cells) [7]: > 25 µg/mL
IC80 (Titer in TZM.bl cells) [7]: > 25 µg/mL
MPI [7]: 0
IC50 (Titer in TZM.bl cells) [8]: > 25 µg/mL
IC80 (Titer in TZM.bl cells) [8]: > 25 µg/mL
MPI [8]: 40
IC50 (Titer in TZM.bl cells) [9]: 0.046 µg/mL
IC80 (Titer in TZM.bl cells) [9]: 0.16 µg/mL
MPI [9]: 100
IC50 (Titer in TZM.bl cells) [10]: 3.04 µg/mL
IC80 (Titer in TZM.bl cells) [10]: > 25 µg/mL
MPI [10]: 72
IC50 (Titer in TZM.bl cells) [11]: 0.151 µg/mL
IC80 (Titer in TZM.bl cells) [11]: 0.55 µg/mL
MPI [11]: 100
IC50 (Titer in TZM.bl cells) [12]: 0.691 µg/mL
IC80 (Titer in TZM.bl cells) [12]: 3.33 µg/mL
MPI [12]: 97
IC50 (Titer in TZM.bl cells) [13]: 0.402 µg/mL
IC80 (Titer in TZM.bl cells) [13]: 2.02 µg/mL
MPI [13]: 96
IC50 (Titer in TZM.bl cells) [14]: 0.206 µg/mL
IC80 (Titer in TZM.bl cells) [14]: 1.91 µg/mL
MPI [14]: 92
IC50 (Titer in TZM.bl cells) [15]: 0.079 µg/mL
IC80 (Titer in TZM.bl cells) [15]: 0.314 µg/mL
MPI [15]: 100
IC50 (Titer in TZM.bl cells) [16]: 0.055 µg/mL
IC80 (Titer in TZM.bl cells) [16]: 0.192 µg/mL
MPI [16]: 100
IC50 (Titer in TZM.bl cells) [17]: 0.145 µg/mL
IC80 (Titer in TZM.bl cells) [17]: 0.599 µg/mL
MPI [17]: 100
IC50 (Titer in TZM.bl cells) [18]: 1.02 µg/mL
IC80 (Titer in TZM.bl cells) [18]: 19.6 µg/mL
MPI [18]: 83
IC50 (Titer in TZM.bl cells) [19]: > 25 µg/mL
IC80 (Titer in TZM.bl cells) [19]: > 25 µg/mL
MPI [19]: 20
IC50 (Titer in TZM.bl cells) [20]: > 25 µg/mL
IC80 (Titer in TZM.bl cells) [20]: > 25 µg/mL
MPI [20]: 0
IC50 (Titer in TZM.bl cells) [21]: 0.067 µg/mL
IC80 (Titer in TZM.bl cells) [21]: 0.339 µg/mL
MPI [21]: 100
